{"source": "paper PMC7423924", "about": "“A fluorogenic cyclic peptide for imaging and quantification of drug-induced apoptosis” (Nature Communications, 2020)", "molecules": {"B1": {"name": "Annexin V: fluorescently-labeled (AF647) annexin V, PS-binding protein (protein, UniProt P08758 2-320, looked up)", "Annexin A5": "AQVLRGTVTDFPGFDERADAETLRKAMKGLGTDEESILTLLTSRSNAQRQEISAAFKTLFGRDLLDDLKSELTGKFEKLIVALMKPSRLYDAYELKHALKGAGTNEKVLTEIIASRTPEELRAIKQVYEEEYGSSLEDDVVGDTSGYYQRMLVVLLQANRDPDAGIDEAQVEQDAQALFQAGELKWGTDEEKFITIFGTRSVSHLRKVFDKYMTISGFQIEETIDRETSGNLEQLLLAVVKSIRSIPAYLAETLYYAMKGAGTDDHTLIRVMVSRSEIDLFNIRKEFRKNFATSLYSMIKGDTSGDYKKALLLLCGEDD", "modifications": "AF647 label"}}, "test_system": "human monocyte-derived macrophages (MDMs)", "assay": "Phagocytosis of pHrodo-labeled apoptotic neutrophils by MDMs", "assay_type": "cell-based", "conditions": "protein S 25 nM, AF647-Annexin V 25 nM", "protocol": "Neutrophils were cultured in the absence (black) or presence of Apo-15 (gray: 100 nM, white: 300 nM). Data presented as mean values ± SEM (n = 3). b Representative histograms of glucocorticoid-treated human MDMs after phagocytosis of pHrodo^TM-labeled neutrophils in the presence of different concentrations of Apo-15. Cells were analyzed using a 5L LSR cytometer with MDM identified based on their distinctive forward and side scatter properties (n = 4). Gating strategy in Supplementary Fig. 15A. c Flow cytometric quantification of phagocytosis of pHrodo^TM-labeled neutrophils by human MDMs. Human MDMs and neutrophils were co-cultured in the absence or presence of protein S (25 nM) and Apo-15 (60 or 600 nM) or AF647-Annexin V (25 nM). Data presented as mean values ± SEM (n ≥ 3). d Representative brightfield and fluorescence microscope images (from four independent experiments) of Apo-15-treated human neutrophils (green) in co-culture with human MDMs. […]\nOne potential limitation to the use of annexins for imaging apoptosis is their interference with the clearance of apoptotic cells by phagocytes. […] We examined whether Apo-15 affected the engulfment of apoptotic cells using a well-established in vitro assay to quantify the extent of phagocytosis in human monocyte-derived macrophages (MDMs) in the presence of the PS-opsonin protein S (Fig. 4b)[32],[33]. […]", "note": "Values joined by “and” are separate entries in the source; they are usually repeats but may differ in a detail not shown here. Identical values can stand only once."}
{"molecule": "B1", "values": [{"measurement": "Phagocytosis assay (%)", "setting": "40 min, 37 °C, single replicates", "result": "30.0% and 35.0% and 33.0%"}, {"measurement": "Reduction of the phagocytic capacity of MDMs", "setting": "Apo-15 60 or 600 nM", "result": "~ 50%"}]}
